To fix the notation:
B1: M93A: 5HT2C receptor mutant, M93 to alanine (protein, UniProt P28335 33-458, looked up, variant M93A)
5-hydroxytryptamine receptor …: IVTDIFNTSDGGRFKFPDGVQNWPALSIVIIIIMTIGGNILVIMAVSMEKKLHNATNYFLASLAIADMLVGLLVMPLSLLAILYDYVWPLPRYLCPVWISLDVLFSTASIMHLCAISLDRYVAIRNPIEHSRFNSRTKAIMKIAIVWAISIGVSVPIPVIGLRDEEKVFVNNTTCVLNDPNFVLIGSFVAFFIPLTIMVITYCLTIYVLRRQALMLLHGHTEEPPGLSLDFLKCCKRNTAEEENSANPNQDQNARRRKKKERRPRGTMQAINNERKASKVLGIVFFVFLIMWCPFFITNILSVLCEKSCNQKLMEKLLNVFVWIGYVCSGINPLVYTLFNKIYRRAFSNYLRCNYKVEKKPPVRQIPRVAATALSGRELNVNIYRHTNEPVIEKASDNEPGIEMQVENLELPVNPSSVVSERISSV
B2: P285A: adenosine A2A receptor NPFIY motif mutant P285A (protein, UniProt P29274 1-412, looked up, variant P285A)
Adenosine receptor A2a: MPIMGSSVYITVELAIAVLAILGNVLVCWAVWLNSNLQNVTNYFVVSLAAADIAVGVLAIPFAITISTGFCAACHGCLFIACFVLVLTQSSIFSLLAIAIDRYIAIRIPLRYNGLVTGTRAKGIIAICWVLSFAIGLTPMLGWNNCGQPKEGKNHSQGCGEGQVACLFEDVVPMNYMVYFNFFACVLVPLLLMLGVYLRIFLAARRQLKQMESQPLPGERARSTLQKEVHAAKSLAIIVGLFALCWLPLHIINCFTFFCPDCSHAPLWLMYLAIVLSHTNSVVNAFIYAYRIREFRQTFRKIIRSHVLRQQEPFKAAGTSARVLAAHGSDGEQVSLRLNGHPPGVWANGSAPHPERRPNGYALGLVSGGSAQESQGNTGLPDVELLSHELKGVCPEPPGLDDPLAQDGAGVS
B3: Y288A: adenosine A2A receptor NPFIY motif mutant Y288A (protein, UniProt P29274 1-412, looked up, variant Y288A)
Adenosine receptor A2a: B2 Adenosine receptor A2a with A285P, Y288A
B4: 287A: adenosine A2A receptor NPFIY motif mutant, residue 287 to alanine (protein, UniProt P29274 1-412, looked up, variant I287A)
Adenosine receptor A2a: B2 Adenosine receptor A2a with A285P, I287A
B5: F286A: adenosine A2A receptor NPFIY motif mutant F286A (protein, UniProt P29274 1-412, looked up, variant F286A)
Adenosine receptor A2a: B2 Adenosine receptor A2a with A285P, F286A
B6: P365A: 5HT2C receptor NPLVY motif mutant P365A (protein, UniProt P28335 33-458, looked up, variant P365A)
5-hydroxytryptamine receptor …: B1 5-hydroxytryptamine receptor … with A61M, P333A
B7: N364A: 5HT2C receptor NPLVY motif mutant N364A (protein, UniProt P28335 33-458, looked up, variant N364A)
5-hydroxytryptamine receptor …: B1 5-hydroxytryptamine receptor … with A61M, N332A
B8: V367A: 5HT2C receptor NPLVY motif mutant V367A (protein, UniProt P28335 33-458, looked up, variant V367A)
5-hydroxytryptamine receptor …: B1 5-hydroxytryptamine receptor … with A61M, V335A
B9: Y368A: 5HT2C receptor NPLVY motif mutant Y368A (protein, UniProt P28335 33-458, looked up, variant Y368A)
5-hydroxytryptamine receptor …: B1 5-hydroxytryptamine receptor … with A61M, Y336A
B10: 1363: 5HT2C receptor mutant, residue 7.48 to alanine (protein, listed as Homo sapiens)
chain: MVNLRNAVHSFLVHLIGLLVWQCDISVSPVAAIVTDIFNTSDGGRFKFPDGVQNWPALSIVIIIIMTIGGNILVIMAVSMEKKLHNATNYFLMSLAIADMLVGLLVMPLSLLAILYDYVWPLPRYLCPVWISLDVLFSTASIMHLCAISLDRYVAIRNPIEHSRFNSRTKAIMKIAIVWAISIGVSVPIPVIGLRDEEKVFVNNTTCVLNDPNFVLIGSFVAFFIPLTIMVITYCLTIYVLRRQALMLLHGHTEEPPGLSLDFLKCCKRNTAEEENSANPNQDQNARRRKKKERRPRGTMQAINNERKASKVLGIVFFVFLIMWCPFFITNILSVLCEKSCNQKLMEKLLNVFVWIGYVCSGANPLVYTLFNKIYRRAFSNYLRCNYKVEKKPPVRQIPRVAATALSGRELNVNIYRHTNEPVIEKASDNEPGIEMQVENLELPVNPSSVVSERISSV

Substitutions are numbered along the chain they refer to. Names and notes keep the numbering of the source.

In one data set the test system is 5HT2C receptor. Put plainly: Thermostability of 5HT2C receptor bound to agonist SCH23390. The class given is physicochemical, human. The note with it: agonist SCH23390 bound, versus parent 5HT2C. The method, then:
An alanine scan has been carried out on the 5HT2C receptor in the presence of the agonist SCH23390 in order to stabilise the agonist conformation. Similar to A2A, it appears that mutating L2.46 (L95 in 5HT2C) to alanine confers significant stability on this receptor increasing the Tm of the receptor by 5.4° C. (FIG. 7). It is notable that in addition to L95, mutating the nearby M93 (two residues away from L2.46) to alanine also confers stability to the agonist bound receptor, resulting in an increase of 2.9° C.
A2AR-(2-316) expression was carried out by using the pRG/III-hs-MBP E. coli expression vector and DH5α cells. Cells were grown at 37° C. in 2 L flasks containing 500 mL of 2×TY medium supplemented with Ampicillin (100 μg/mL) and glucose (0.2% w/v). At OD600≈0.7, IPTG and theophylline were added at final concentrations respectively of 0.5 mM and 100 μM, and the temperature was reduced to 20° C. After 22 to 24 hours, cells were harvested in aliquots of 14 mL, centrifuged for 30 min and stored at −20° C. Both 5HT2C and M4 receptors were transiently expressed in HEK293T cells using GeneJuice transfection reagent used according to the manufacturers guidelines.
5HT2C receptor was solubilised from transiently transfected mammalian cells in 50 mM Hepes pH7.4, 100 mM KCl, 0.5% DDM (0.1% CHS/0.6% CHAPS was added to cells for SCH23390 agonist assay). Tm analysis was performed directly on the soluble lysate. The Tm was determined by incubating 108 μl of the lysate with [N^6-methyl-^3H]Mesulergine radioligand at a final concentration of 17 nM or 9 nM [^3H]SCH23390 for one hour at 4° C. The six ligand incubations are then incubated at six different temperatures from 25° C. to 55° C., for thirty minutes. Receptor bound and free radioligand were separated using a 96-well plate gel filtration assay.
(§1) 5HT2C receptor was solubilised from transiently transfected mammalian cells about 40 hours post transfection, in 50 mM Hepes pH7.4/100 mM KCl/0.5% DDM/(0.1% CHS/0.6% CHAPS was added to cells for SCH23390 agonist assay) and protease inhibitor. Cell lysates were left at 4° C. on a rotator and then cleared by centrifugation at 13,200 rpm for 20 minutes at 4° C. Thermostability analysis was performed directly on the soluble lysate. The Tm was determined by incubating 108 μl of the lysate with [N^6-methyl-^3H]Mesulergine radioligand at a final concentration of 17 nM or 9 nM [^3H]SCH23390 for one hour at 4° C. The six ligand incubations are then incubated at six different temperatures from 25° C. to 55° C., for thirty minutes. Receptor bound and free radioligand were separated using G25 Sephadex spin columns.
With B1, the “increase of Tm” value turned out to be 2.9 °C.

Still in this data set, the particulars now being: bound to agonist SCH23390.
Consider B1, for which the Tm came to 45.6 °C.

Another data set relates to adenosine A2A receptor. In words: Antagonist binding to adenosine A2A NPxxY motif alanine mutants (Table 1). On the set-up: species or system human. The note with it: antagonist binding. How it is done:
(§2) An alanine scan was carried out in a similar fashion on an adenosine A2A receptor along with the 5HT2C receptor in the presence of the antagonist Mesulergine. Both alanine scans were carried out in order to further stabilize the antagonist conformation. […] The motif in Adenosine A2A is NPFIY (SEQ ID NO: 364) and for the 5HT2C is NPLVY (SEQ ID NO: 363). Therefore mutations in this region of the receptor contain stabilising mutations specific to the agonist conformation and detrimentally effect antagonist binding.
Adenosine A2A receptor was solubilised from transiently transfected mammalian cells about 36 hours post transfection, in 50 mM Tris pH7.4/400 mM NaCl/0.5% DDM and protease inhibitor. Cell lysates were left at 4° C. on a rotator and then cleared by centrifugation at 13,200 rpm for 20 minutes at 4° C. Solubilised receptors were then purified on Ni-NTA beads and eluted with 50 mM histidine. The eluted receptor was used in radioligand binding assay. The Tm was determined by incubating 108 μl of the eluate with Zm241385 radioligand at a final concentration of 100 nM for one hour at 4° C. The six ligand incubations are then incubated at six different temperatures from 20° C. to 50° C., for thirty minutes. Receptor bound and free radioligand were separated using G25 Sephadex spin columns.
For B2, the “% of Wildtype binding” value is 7.69%.

As to B3, the “% of Wildtype binding” value amounted to 14.74%.

Turning to B4, the “% of Wildtype binding” value was found to be 2.78%.

As to B5, the “% of Wildtype binding” value turned out to be 0.13%.

Staying with this data set, now noted: antagonist binding, replicate 1.
Consider B2, for which the DPM1 is listed as 1488 DPM.

Regarding B3, the DPM1 is given as 2150 DPM.

In turn, B4 showed a DPM1 of 888 DPM.

As for B5, the DPM1 was determined as 519 DPM.

Still in this data set, the particulars now being: antagonist binding, replicate 2.
On to B2, for which the DPM2 came out at 1471 DPM.

As to B3, the DPM2 came out at 2602 DPM.

For B4, the DPM2 worked out at 820 DPM.

Consider B5, for which the DPM2 is given as 514 DPM.

The data set is the same for the next values; noted with them: average minus background.
As for B2, the “Average - BG” value was found to be 979.5.

With B3, the “Average - BG” value came out at 1876.

For the molecule B4, the “Average - BG” value is 354.

B5: the “Average - BG” value is listed as 16.5.

The data set is the same for the next values; noted with them: average of DPM1 and DPM2.
Take B2: the Average worked out at 1479.5.

On to B3, for which the Average is 2376.

As for B4, the Average was 854.

Take B5: the Average was 516.5.

In another data set the test system is 5HT2C receptor. Put plainly: Antagonist binding to 5HT2C NPxxY motif alanine mutants (Table 1). On the set-up: species or system human; Average / Average - BG: unit not given here. The note with it: antagonist Mesulergine binding. The method, then:
as §2, §1
Turning to B6, the “% of Wildtype binding” value turned out to be 14.94%.

On to B7, for which the “% of Wildtype binding” value turned out to be 36.35%.

For B8, the “% of Wildtype binding” value is 22.25%.

On to B9, for which the “% of Wildtype binding” value worked out at 11.22%.

The same data set, now with this note: antagonist Mesulergine binding, replicate 1.
For the molecule B6, the DPM1 was determined as 1855 DPM.

Take B7: the DPM1 came out at 3988 DPM.

B8 returned a DPM1 of 2512 DPM.

The molecule B9 gave a DPM1 of 1328 DPM.

Staying with this data set, now noted: antagonist Mesulergine binding, replicate 2.
B6: the DPM2 is reported as 1760 DPM.

In turn, B7 registered a DPM2 of 3569 DPM.

On to B8, for which the DPM2 is 2449 DPM.

B9 displayed a DPM2 of 1602 DPM.

Still in this data set, the particulars now being: average minus background.
Regarding B6, the “Average - BG” value is given as 1376.

In the case of B7, the “Average - BG” value is recorded as 3347.

For the molecule B8, the “Average - BG” value was 2049.

Consider B9, for which the “Average - BG” value came to 1033.5.

Still in this data set, the particulars now being: average of DPM1 and DPM2.
B6 registered an Average of 1807.5.

In turn, B7 yielded an Average of 3778.5.

As to B8, the Average was found to be 2480.5.

As for B9, the Average worked out at 1465.

The next data set relates to 5HT2C receptor. Put plainly: Two point thermostability assay, SCH23390 agonist binding to 5HT2C alanine scan mutants. The data set is classed as physicochemical, human.
Settings: not given
The method, then: An alanine scan has been carried out on the 5HT2C receptor in the presence of the agonist SCH23390 in order to stabilise the agonist conformation.
as §1
On to B10, for which the “thermostability (agonist binding at the destabilising temperature compared to wild type)” value was “increased agonist binding compared to the wild type receptor”.

Values taken from patent US8703915B2, “Mutant proteins and methods for producing them” (Heptares Therapeutics Limited, priority 2009, dated 2014).
